From patent publication US20250027945A1 (University of California, published 2025)
Positions count from the first letter of the chain named.

B1: 7-H10 anti-human RYK mAb (antibody, V domains shown)
VH: QVQLQQSGAELAKPGTSVKLSCKASGYIFTNYDINWVRQRPEQGLEWIGWIFPGDDSTKYNEKFEGKAALTTDKSSNTAYIQLSRLTSGDSAVYFCTRYHYYGSSLGWSFDVWGAGTSVTVSS
VL: EIVLTQSPALMAASPGEKVTITCSVSSRISSINLHWYQQKSETSPKTWIYGTSNLASGVPSRFSGSGSGTSYSLTISNMEAEDAATYYCQQWSSYPYTFGGGTKVEIK
notes: Mouse hybridoma mAb, kappa light chain, detected with anti-mouse IgG; also called mAb 7-H10
B2: 3C12 (antibody, V domains shown)
VH: QVQLKESGPGLVAPSQSLSITCTVSGFSLNGYGVNWVRQPPGKDLEWLGMIWGDGITEFNSALKSRLSISKDNSKSQVFLKMNSLQTEDTARYYCVRQGSGVWFAYWGQGTLVS
VL: DVLVTQTPLSLPVSLGDQASISCRSSQTIVHSNGNTYLEWYLQKPGQSPKLLIYKVSNRFSGVPDRFSGSGSGTDFTLKISRVEAEDLGVYYCFQGSHVPYTFGGGTKLEIK
notes: anti-human RYK mAb; also called 3C12 mAb
B3: 11E9 (antibody, V domains shown)
VH: QVQLKESGPGLVAPSQSLSITCTVSGFSLNGYGVNWVRQPPGKDLEWLGMIWGDGITEFNSALKSRLSISKDNSKSQVFLKMNSLQTEDTARYYCVRQGSGVWFAYWGQGTLS
VL: B2 VL with S61C
notes: anti-human RYK mAb; also called 11E9 mAb
B4: recombinant human RYK protein used in KinExA (receptor, UniProt P34925 46-227, looked up)
chain: AAPAPRPPELQSASAGPSVSLYLSEDEVRRLIGLDAELYYVRNDLISHYALSFSLLVPSETNFLHFTWHAKSKVEYKLGFQVDNVLAMDMPQVNISVQGEVPRTLSVFRVELSCTGKVDSEVMILMQLNLTVNSSKNFTVLNFKRRKMCYKKLEEVKTSALDKNTSRTIYDPVHAAPTTSTR
notes: Legend prints 'RYK2'; also called recombinant human RYK2 protein

Experiments:
[1] = molecular target: B4; experiment: KinExA 3200, soluble RYK competitor against RYK-coated particles
Description: (§1) Analysis was performed using a KinExA 3200 instrument. FIG. 7A: The proportion of anti-human RYK mAb bound to particles coated with RYK protein (y-axis) in the presence of increasing molar (M) concentration of soluble RYK competitor (x-axis) is shown for 2-D11 mAb (upper left panel) and 7-H10 mAb (lower left panel).

[2] = molecular target: T1, recombinant extracellular protein of mouse RYK (mouse, UniProt Q01887 35-211); experiment: immunoblot of recombinant extracellular protein on nylon membrane
T1 construct: also called mRYK; not shown: rabbit IgG tag for purification
Description: (§2) FIG. 4A illustrates experiments in which binding of 2-D11, 7-H10, 3-C12, 11-E9, 6-B5, 6-D10 and sheep anti-RYK mAb was assessed using recombinant human RYK proteins (SEQ ID NO:129) in which one amino acid that differs between human and mouse RYK within the extracellular domain was replaced with the corresponding amino acid of mouse RYK. Each recombinant protein was transferred onto nylon membrane, probed with the indicated anti-RYK mAb or Sheep anti-RYK Ab, and detected with an anti-mouse IgG or donkey-anti-sheep antibody conjugated with horse radish peroxidase. […]
The anti-human RYK mAbs, 2-D11 and 7-H10, appear specific for an amino terminal epitope of human Ryk (residues 46-57) that are distinct from those in mouse Ryk (FIG. 3); these mAbs also bind mutant forms of Ryk containing amino acid substitutions in human Ryk at positions that differ from that of the highly homologous mouse Ryk to assimilate mouse Ryk at the site of substitution, with amino acid sequence shown in FIG. 3, as shown by immunoblot analyses of recombinant extracellular proteins of human or mouse or each of the various mutant forms of human Ryk (FIG. 4) For this, the binding of 2-D11, 7-H10, or Sheep anti-RYK mAb was assessed using recombinant extracellular RYK proteins as specified in the Key. […]

[3] = molecular target: T1, recombinant extracellular protein of …; experiment: dot blot of recombinant RYK proteins (rabbit IgG tag) on nylon membrane, probed with the mAb, anti-mouse IgG-HRP
Description: as §2, with “FIGS. 4A-4B illustrate the […] of amino acids required for binding of anti-human RYK mAb to the extracellular domain of human RYK (SEQ ID NO:129). FIG.” for “FIG.”, “peroxidase. Rabbit anti-IgG blotting is a positive for protein blotting and detection as recombinant proteins have a rabbit IgG tag for purification. Alignment of the protein sequences of the extracellular domain of human and mouse RYK are shown in the lower panel and the boxed amino acids indicate the amino acids changes made for each recombinant protein.” for “peroxidase.”

7-H10 anti-human RYK mAb = molecular target: B1; experiment: KinExA 3200: free mAb captured on RYK-coated particles in the presence of rising molar concentration of soluble RYK
Description: as §1

Binder: B1
Kd [1]: 10.6 nM
binding result [2]: no binding

Binder: B2
binding result [3]: no binding

Binder: B3
binding result [3]: no binding

Binder: B4
IC50 (read off the curve) (7-H10 anti-human RYK mAb): ~20 nM
